A short description of this data set: collision cross section of modified peptide (TIMS, N2, iRT-aligned); higher = larger / more extended gas-phase ion. The essentials:
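Synthetic peptide pools (~100 fmol/µL in 2% acetonitrile/0.1% formic acid, iRT standard spiked 1:40) were separated on a 120-min nanoflow C18 gradient at 60 °C. They were analysed on a timsTOF Pro/HT (dda-PASEF, nitrogen, ~2.4 mbar) and identified with MaxQuant. 1/K0 was calibrated with three reference ions and aligned run-wise to the median iRT peptide deviation. Collision cross section came from the Mason-Schamp equation, averaging 1–3 technical replicates of the most abundant feature per charge state.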

[1] abbreviates: charge state: 2, modification: Nitro (Y).
The mark [2] stands for this setting: charge state: 3, modification: Nitro (Y).
[3] abbreviates: charge state: 2, modification: Formyl.
[4] abbreviates: charge state: 2, modification: Crotonyl.
[5] abbreviates: charge state: 3, modification: Crotonyl.
[6] abbreviates: charge state: 2, modification: Biotin.
Where [7] appears, read: charge state: 3, modification: Biotin.
The mark [8] stands for this setting: charge state: 2, modification: Trimethyl (K).
Where [9] appears, read: charge state: 3, modification: Trimethyl (K).
Where [10] appears, read: charge state: 2, modification: Dimethyl (K).
Where [11] appears, read: charge state: 3, modification: Dimethyl (K).
Where [12] appears, read: charge state: 2, modification: Hydroxyproline.
Where [13] appears, read: charge state: 3, modification: Citrullination (R).
The mark [14] stands for this setting: charge state: 2, modification: Methyl (K).
Setting [15] is: charge state: 3, modification: Methyl (K).
Where [16] appears, read: charge state: 2, modification: Succinyl.
[17] abbreviates: charge state: 3, modification: Succinyl.
[18] abbreviates: charge state: 2, modification: Phospho (Y).
Where [19] appears, read: charge state: 2, modification: hydroxyisobutyryl.
[20] abbreviates: charge state: 3, modification: hydroxyisobutyryl.
[21] abbreviates: charge state: 2, modification: Glutarylation.
Setting [22] is: charge state: 3, modification: Glutarylation.
[23] abbreviates: charge state: 3, modification: Malonyl.
Setting [24] is: charge state: 3, modification: Formyl.
[25] abbreviates: charge state: 2, modification: Acetyl (K).

This passage reports collision cross section results from the supplement of paper PMC10598134.

± gives the standard deviation.

As for YIGTGHADTTK [_Y(Nitro (Y))IGTGHADTTK_], the collision cross section by setting is: under setting [1], 358.04 ± 1.2 Å²; under setting [2], 452.29 ± 0.83 Å².
Under setting [3], LQDVSGQLSSSKK [_LQDVSGQLSSSK(Formyl)K_] displayed a collision cross section of 394.61 ± 0.21 Å².
Regarding “GADFLVTEVENGGSLGSKK [_GADFLVTEVENGGSLGSK(Crotonyl)K_]”, the collision cross section by setting is: under setting [4], 475.14 ± 1.9 Å²; under setting [5], 548.96 Å².
As to “GFALVGVGSEASSKK [_GFALVGVGSEASSK(Biotin)K_]”, the collision cross section by setting is: under setting [6], 423.88 ± 1.4 Å²; under setting [7], 494.71 ± 0.97 Å².
As to “ISALQGKLSK [_ISALQGK(Trimethyl (K))LSK_]”, the collision cross section by setting is: under setting [8], 359.1 ± 0.6 Å²; under setting [9], 419.39 ± 1.8 Å².
“SNEEGSEEKGPEVR [_SNEEGSEEK(Dimethyl (K))GPEVR_]”: the collision cross section stood at 393.74 ± 1.1 Å² under setting [10] and 467.17 ± 0.73 Å² under setting [11].
Turning to “TLQKQSVVYGGK [_TLQK(Dimethyl (K))QSVVYGGK_]”, the collision cross section amounted to 397.97 ± 0.88 Å² under setting [10] and 459.07 ± 1.6 Å² under setting [11].
Turning to GPPGPPGR [_GPPGPP(Hydroxyproline)GR_], under setting [12], the collision cross section is 291.03 ± 0.88 Å².
As for “GGPGGELPRGPQAGLGPR [_GGPGGELPR(Citrullination (R))GPQAGLGPR_]”, the collision cross section (charge state: 2, modification: Citrullination (R)) stood at 413.18 ± 0.98 Å² and the collision cross section under setting [13] came to 502.3 ± 0.77 Å².
For “IHVQSSSDSSDEPAEKR [_IHVQSSSDSSDEPAEK(Crotonyl)R_]”, the collision cross section is, setting by setting: under setting [4], 451.2 Å²; under setting [5], 506.27 ± 1.7 Å².
In the case of “HELQANCYEEVKDR [_HELQANCYEEVK(Methyl (K))DR_]”, the collision cross section reads like this: under setting [14], 444.71 Å²; under setting [15], 527.11 ± 0.72 Å².
With “SRGGGGNFGPGPGSNFR [_SR(Citrullination (R))GGGGNFGPGPGSNFR_]”, the collision cross section under setting [13] was determined as 461.31 ± 6.4 Å².
On to “GTVPDDAVEALADSLGKK [_GTVPDDAVEALADSLGK(Crotonyl)K_]”, for which the collision cross section was 456.44 ± 0.38 Å² under setting [4] and 536.14 Å² under setting [5].
As to “GRGVGSPEPGPTAPYLGRR [_GR(Citrullination (R))GVGSPEPGPTAPYLGRR_]”, under setting [13], the collision cross section stood at 497.66 ± 1.9 Å².
Take “TLQKQSVVYGGK [_TLQK(Trimethyl (K))QSVVYGGK_]”: the collision cross section reads like this: under setting [8], 405 ± 1.6 Å²; under setting [9], 449.39 ± 2.4 Å².
IQQELQTAKK [_IQQELQTAK(Succinyl)K_] came in with a collision cross section under setting [16] of 376.48 ± 0.24 Å² and a collision cross section under setting [17] of 438.22 Å².
For ILDLKTGTVK [_ILDLK(Succinyl)TGTVK_], the collision cross section under setting [16] turned out to be 362.99 ± 0.74 Å².
Turning to “SGKFTQQDIDEAK [_SGK(Crotonyl)FTQQDIDEAK_]”, under setting [4], the collision cross section is 419.28 ± 0.55 Å².
Turning to “AYPLADAHLTK [_AY(Phospho (Y))PLADAHLTK_]”, the collision cross section amounted to 380.31 ± 0.063 Å² under setting [18] and 465.22 ± 1 Å² (charge state: 3, modification: Phospho (Y)).
Consider “HLRGHGPQPPLR [_HLR(Methyl (R))GHGPQPPLR_]”, for which, where the note is “charge state: 3, modification: Methyl (R)”, the collision cross section worked out at 492.6 ± 2.1 Å².
As to “VGYPGPSGPLGAR [_VGYP(Hydroxyproline)GPSGPLGAR_]”, the collision cross section by setting is: under setting [12], 356.91 ± 0.79 Å²; (charge state: 3, modification: Hydroxyproline) 437.31 ± 1.7 Å².
Take “SLFFGGKGAPLQR [_SLFFGGK(hydroxyisobutyryl)GAPLQR_]”: the collision cross section under setting [19] worked out at 408.12 ± 0.55 Å² and the collision cross section under setting [20] worked out at 482.11 Å².
In the case of VGTASVLQPVKK [_VGTASVLQPVK(Succinyl)K_], the collision cross section reads like this: under setting [16], 383.62 ± 0.87 Å²; under setting [17], 412.94 ± 4.4 Å².
For the substance “STGLELETPSLVPVKK [_STGLELETPSLVPVK(Malonyl)K_]”, for the setting “charge state: 2, modification: Malonyl”, the collision cross section is given as 445.74 ± 0.66 Å².
“DTGEKLTVAENEAETK [_DTGEK(Methyl (K))LTVAENEAETK_]”: the collision cross section reads like this: under setting [14], 429.8 ± 2.5 Å²; under setting [15], 482 ± 3.4 Å².
Turning to “SPSDSGYSYETIGKTTK [_SPSDSGYSYETIGK(Gluratylation)TTK_]”, the collision cross section by setting is: under setting [21], 456.74 ± 1.5 Å²; under setting [22], 531.96 ± 0.12 Å².
Substance “DDSFLGKLGGTLAR [_DDSFLGK(Biotin)LGGTLAR_]” showed a collision cross section under setting [6] of 427.7 ± 0.62 Å² and a collision cross section under setting [7] of 505.13 Å².
Under setting [18], FEGAIYR [_FEGAIY(Phospho (Y))R_] displayed a collision cross section of 333.04 ± 0.65 Å².
Substance HVSPVTPPR [_HVSPVT(HexNAc (ST))PPR_] registered a collision cross section (charge state: 2, modification: HexNAc (ST)) of 366.95 ± 0.8 Å².
Regarding “AAQASDLEKIHLDEK [_AAQASDLEK(Gluratylation)IHLDEK_]”, the collision cross section is listed as 471.95 ± 1.5 Å² under setting [21] and 503.34 ± 1 Å² under setting [22].
“TTGFYSGFSEVAEKR [_TTGFYSGFSEVAEK(hydroxyisobutyryl)R_]”: the collision cross section under setting [19] was 444.06 ± 0.8 Å² and the collision cross section under setting [20] is 515.51 ± 0.49 Å².
Regarding “VETTVTSLKTK [_VETTVTSLK(Dimethyl (K))TK_]”, the collision cross section reads like this: under setting [10], 385.99 ± 0.37 Å²; under setting [11], 450.04 ± 3.7 Å².
Turning to “YEQEHAAIQDKLFQVAK [_YEQEHAAIQDK(Malonyl)LFQVAK_]”, the collision cross section under setting [23] is reported as 515.74 ± 1.8 Å².
Take “LTSLNVKYNNDK [_LTSLNVK(Trimethyl (K))YNNDK_]”: the collision cross section runs as follows: under setting [8], 406.52 ± 0.61 Å²; under setting [9], 461.22 ± 1.8 Å².
In the case of “LDEKENLSAK [_LDEK(Gluratylation)ENLSAK_]”, the collision cross section under setting [21] is 373.82 ± 0.62 Å².
For “LQEKVESAQSEQK [_LQEK(Methyl (K))VESAQSEQK_]”, the collision cross section runs as follows: under setting [14], 410.87 ± 2 Å²; under setting [15], 480.74 ± 20 Å².
For the substance “DTGEKLTVAENEAETK [_DTGEK(hydroxyisobutyryl)LTVAENEAETK_]”, the collision cross section reads like this: under setting [19], 449.65 ± 0.82 Å²; under setting [20], 520.27 ± 2.8 Å².
Substance “ITLSKHQNVQLPR [_ITLSK(Dimethyl (K))HQNVQLPR_]” showed a collision cross section under setting [11] of 489.75 ± 1.2 Å².
For “SPDEAYAIAKK [_SPDEAYAIAK(hydroxyisobutyryl)K_]”, the collision cross section was 377.18 ± 1.4 Å² under setting [19] and 453.4 ± 3.9 Å² under setting [20].
Turning to LDHLAEKFR [_LDHLAEK(Formyl)FR_], the collision cross section by setting is: under setting [3], 364.92 ± 0.89 Å²; under setting [24], 435.6 ± 2.1 Å².
Regarding “YSTSGSSGLTTGK [_Y(Nitro (Y))STSGSSGLTTGK_]”, under setting [1], the collision cross section is 371.62 ± 0.55 Å².
Take LSSETYSQAK [_LSSETY(Phospho (Y))SQAK_]: under setting [18], the collision cross section was determined as 357.2 ± 0.065 Å².
Regarding “IINEPTAAAIAYGLDKK [_IINEPTAAAIAYGLDK(GlyGly (K))K_]”, the collision cross section is, setting by setting: (charge state: 2, modification: GlyGly (K)) 510.84 ± 1.5 Å²; (charge state: 3, modification: GlyGly (K)) 560.44 ± 1.9 Å².
In turn, IGNSYFKEEK [_IGNSYFK(Acetyl (K))EEK_] registered a collision cross section under setting [25] of 372.71 ± 0.4 Å².
The substance “VLTANSNPSSPSAAKR [_VLTANSNPSSPSAAK(Formyl)R_]” showed a collision cross section under setting [3] of 421.8 ± 0.8 Å² and a collision cross section under setting [24] of 501.92 ± 27 Å².
As to IQQELQTAKK [_IQQELQTAK(Acetyl (K))K_], the collision cross section under setting [25] is reported as 374.24 ± 0.38 Å² and the collision cross section (charge state: 3, modification: Acetyl (K)) was found to be 435.9 ± 0.91 Å².
In the case of “GETASKLQSEISR [_GETASK(Methyl (K))LQSEISR_]”, the collision cross section is, setting by setting: under setting [14], 400.35 Å²; under setting [15], 463.3 ± 3.8 Å².
On to “ISSNFSSIIAEKLR [_ISSNFSSIIAEK(hydroxyisobutyryl)LR_]”, for which the collision cross section under setting [19] was found to be 431.4 ± 1.4 Å².
With DYGNSPLHR [_DY(Nitro (Y))GNSPLHR_], the collision cross section by setting is: under setting [1], 341.59 ± 0.55 Å²; under setting [2], 437.8 ± 1.2 Å².
In the case of “DAEAAEATAEGALKAEK [_DAEAAEATAEGALK(Propionyl)AEK_]”, the collision cross section (charge state: 2, modification: Propionyl) is recorded as 451.16 ± 23 Å².
With “HELQANCYEEVKDR [_HELQANCYEEVK(Succinyl)DR_]”, the collision cross section is, setting by setting: under setting [16], 444.39 Å²; under setting [17], 483.15 ± 3.9 Å².
Taken in the same sequence, the figures for “DLGKFQVATDALK [_DLGK(Succinyl)FQVATDALK_]” were 409.86 ± 0.37 Å² and 478.58 Å².
Taken in the same sequence, the figures for “LLIVSTTPYSEKDTK [_LLIVSTTPYSEK(Succinyl)DTK_]” were 458.63 ± 1.1 Å² and 480.04 ± 2.5 Å².
As to “VFIGNLNTLVVKKK [_VFIGNLNTLVVK(Malonyl)KK_]”, under setting [23], the collision cross section was determined as 517.22 Å².
Consider “SITHSTVGSKGEK [_SITHSTVGSK(Butyryl)GEK_]”, for which the collision cross section came to 396.1 ± 0.79 Å² (charge state: 2, modification: Butyryl) and 440.88 ± 2.8 Å² (charge state: 3, modification: Butyryl).
